The labels stand for the following.
B1: glmS ribozyme (parent)
chain: AUAAAAGCGCCAGAACUACAGAAAUGUAGUUGACGAGGAGGAGGUUUAUCGAAUUUUCGGCGGAUGCCUCCAAA

± gives the standard error. For some of these results: Variants at the floor of the assay were thinned out. Bounds are passed on as bounds.

What all share (details): with glucosamine-6-phosphate
Series [1] covers variants of B1. Description: kcat; higher = faster cleavage; RNA array. A digest of the protocol: (§1)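 Sequenced MiSeq chips were the platform: E. coli RNA polymerase transcribed barcoded ribozyme variants on them in situ, and a hybridised Cy3 probe tracked these at 37 °C. After glucosamine-6-phosphate (40 μM to 10 mM) in HEPES/KCl/Mg(OAc)2 buffer was flowed in, tiles were imaged over ~14 h. Signals normalised to baseline and to non-cleaving reference variants were reduced to per-tile medians and fit to one- or two-exponential decays to obtain kobs. kcat and KM were derived through weighted Michaelis–Menten fits across concentrations.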

The variants in series [2] derive from B1. The experiment in a line: self-cleavage kobs at 640 uM GlcN6P; higher = faster cleavage; RNA array. A digest of the protocol:
as §1

In series [3] the parent is B1. Description: self-cleavage kobs at 2500 uM GlcN6P; higher = faster cleavage; RNA array. An outline of the steps: as §1
In series [4] the parent is B1. Description: self-cleavage kobs at 10000 uM GlcN6P; higher = faster cleavage; RNA array. An outline of the steps:
as §1

The variants in series [5] derive from B1. Description: self-cleavage kobs at 160 uM GlcN6P; higher = faster cleavage; RNA array. An outline of the steps:
as §1

Series [6] covers variants of B1. Description: self-cleavage kobs at 40 uM GlcN6P; higher = faster cleavage; RNA array. A digest of the protocol: as §1
In series [7] the parent is B1. Description: KM; higher = weaker cofactor use; RNA array. A digest of the protocol: as §1

The term kcat denotes the number of substrate molecules converted per active site and unit of time at saturation. The term KM denotes the substrate concentration at which the rate is half of its maximum.

With G44U A64G, in the series with glucosamine-6-phosphate [1], the kcat turned out to be 0.000112 ± 2.4e-05 s⁻¹. Also, the “self-cleavage kobs at 640 uM GlcN6P” value with glucosamine-6-phosphate [2] was found to be 9.74e-05 ± 4.6e-05 s⁻¹. For the same variant, the “self-cleavage kobs at 2500 uM GlcN6P” value with glucosamine-6-phosphate [3] came to 5.94e-05 ± 1.4e-05 s⁻¹. Moreover, the “self-cleavage kobs at 10000 uM GlcN6P” value in the series with glucosamine-6-phosphate [4] amounted to 9.64e-05 ± 1.3e-05 s⁻¹.
For U30G U56C, the kcat with glucosamine-6-phosphate [1] came out at 0.00111 ± 0.00035 s⁻¹. Moreover, in the series with glucosamine-6-phosphate [5], the “self-cleavage kobs at 160 uM GlcN6P” value was 7.46e-05 ± 1.8e-05 s⁻¹. In addition, the “self-cleavage kobs at 640 uM GlcN6P” value in the series with glucosamine-6-phosphate [2] is 0.000359 ± 5.7e-05 s⁻¹. Moreover, the “self-cleavage kobs at 2500 uM GlcN6P” value with glucosamine-6-phosphate [3] was 0.000454 ± 8.9e-05 s⁻¹. Further, in the series with glucosamine-6-phosphate [4], the “self-cleavage kobs at 10000 uM GlcN6P” value turned out to be 0.00109 ± 0.00017 s⁻¹.
Turning to A14U C50U C68A, the kcat in the series with glucosamine-6-phosphate [1] came to 3.75e-05 ± 1.4e-05 s⁻¹. Moreover, the “self-cleavage kobs at 10000 uM GlcN6P” value with glucosamine-6-phosphate [4] is less than 1e-05 s⁻¹.
Turning to A12C U54G, the kcat with glucosamine-6-phosphate [1] was 0.0218 ± 0.01 s⁻¹. The “self-cleavage kobs at 40 uM GlcN6P” value with glucosamine-6-phosphate [6] is 0.000492 ± 7.4e-05 s⁻¹. In the series with glucosamine-6-phosphate [5], the “self-cleavage kobs at 160 uM GlcN6P” value worked out at 0.0011 ± 0.00016 s⁻¹. Further, in the series with glucosamine-6-phosphate [2], the “self-cleavage kobs at 640 uM GlcN6P” value is 0.00452 ± 0.00083 s⁻¹. Moreover, the “self-cleavage kobs at 2500 uM GlcN6P” value with glucosamine-6-phosphate [3] turned out to be 0.0102 ± 0.0016 s⁻¹. Further, the “self-cleavage kobs at 10000 uM GlcN6P” value in the series with glucosamine-6-phosphate [4] is 0.0271 ± 0.0095 s⁻¹.
As to G13A A15C, the kcat in the series with glucosamine-6-phosphate [1] was 0.000242 ± 3.2e-05 s⁻¹. Further, the KM in the series with glucosamine-6-phosphate [7] is 2680 ± 760 µM. The “self-cleavage kobs at 640 uM GlcN6P” value with glucosamine-6-phosphate [2] is 5.24e-05 ± 1.1e-05 s⁻¹. The “self-cleavage kobs at 2500 uM GlcN6P” value with glucosamine-6-phosphate [3] turned out to be 9.3e-05 ± 2.5e-05 s⁻¹. Besides, in the series with glucosamine-6-phosphate [4], the “self-cleavage kobs at 10000 uM GlcN6P” value came out at 0.000198 ± 2.6e-05 s⁻¹.
U54A G59A: the turnover number (kcat) with glucosamine-6-phosphate [1] stood at 6.69e-05 ± 7.1e-06 s⁻¹. For the same variant, in the series with glucosamine-6-phosphate [7], the Michaelis-Menten constant (KM) amounted to 4220 ± 1300 µM. Moreover, in the series with glucosamine-6-phosphate [4], the “self-cleavage kobs at 10000 uM GlcN6P” value worked out at 4.72e-05 ± 7.4e-06 s⁻¹.
U31C U54A: the kcat with glucosamine-6-phosphate [1] was found to be 0.00685 ± 0.0022 s⁻¹. In the series with glucosamine-6-phosphate [7], the Michaelis constant (KM) was 2980 ± 1300 µM. The “self-cleavage kobs at 40 uM GlcN6P” value in the series with glucosamine-6-phosphate [6] was 0.000119 ± 1.5e-05 s⁻¹. Besides, in the series with glucosamine-6-phosphate [5], the “self-cleavage kobs at 160 uM GlcN6P” value was 0.000268 ± 5.9e-05 s⁻¹. Also, in the series with glucosamine-6-phosphate [2], the “self-cleavage kobs at 640 uM GlcN6P” value came to 0.00122 ± 0.00019 s⁻¹. Moreover, the “self-cleavage kobs at 2500 uM GlcN6P” value in the series with glucosamine-6-phosphate [3] is 0.00228 ± 0.00051 s⁻¹. Besides, the “self-cleavage kobs at 10000 uM GlcN6P” value with glucosamine-6-phosphate [4] was 0.006 ± 0.00078 s⁻¹.
On to U54A U65G, for which the catalytic constant (kcat) in the series with glucosamine-6-phosphate [1] is 0.00357 ± 0.0014 s⁻¹. Moreover, the “self-cleavage kobs at 40 uM GlcN6P” value in the series with glucosamine-6-phosphate [6] is 5.78e-05 ± 9.8e-06 s⁻¹. The “self-cleavage kobs at 160 uM GlcN6P” value in the series with glucosamine-6-phosphate [5] was found to be 0.000211 ± 3.9e-05 s⁻¹. The “self-cleavage kobs at 640 uM GlcN6P” value with glucosamine-6-phosphate [2] stood at 0.000927 ± 0.00015 s⁻¹. Moreover, in the series with glucosamine-6-phosphate [3], the “self-cleavage kobs at 2500 uM GlcN6P” value was found to be 0.001 ± 0.00025 s⁻¹. In the series with glucosamine-6-phosphate [4], the “self-cleavage kobs at 10000 uM GlcN6P” value turned out to be 0.00358 ± 0.00043 s⁻¹.
For C61A C67U, in the series with glucosamine-6-phosphate [1], the turnover number (kcat) was 4.47e-05 ± 1.3e-05 s⁻¹. The “self-cleavage kobs at 160 uM GlcN6P” value with glucosamine-6-phosphate [5] was 2.79e-05 ± 1.1e-05 s⁻¹. In addition, the “self-cleavage kobs at 640 uM GlcN6P” value with glucosamine-6-phosphate [2] came to 6.41e-05 ± 1.4e-05 s⁻¹. For the same variant, in the series with glucosamine-6-phosphate [3], the “self-cleavage kobs at 2500 uM GlcN6P” value worked out at 4.8e-05 ± 9.3e-06 s⁻¹.
Regarding A14C A48U, the kcat in the series with glucosamine-6-phosphate [1] stood at 5.62e-05 ± 5.4e-06 s⁻¹. The Michaelis constant (KM) with glucosamine-6-phosphate [7] came to 3170 ± 1200 µM. Further, the “self-cleavage kobs at 10000 uM GlcN6P” value with glucosamine-6-phosphate [4] was found to be 4.26e-05 ± 7.7e-06 s⁻¹.
Turning to C10G U49A, the turnover number (kcat) with glucosamine-6-phosphate [1] was 1.12e-05 ± 2.4e-06 s⁻¹. Further, the “self-cleavage kobs at 40 uM GlcN6P” value with glucosamine-6-phosphate [6] is less than 1e-05 s⁻¹. Besides, in the series with glucosamine-6-phosphate [2], the “self-cleavage kobs at 640 uM GlcN6P” value is less than 1e-05 s⁻¹.
Take A15G: the kcat with glucosamine-6-phosphate [1] is 0.0648 ± 0.0031 s⁻¹. The KM with glucosamine-6-phosphate [7] was found to be 2180 ± 120 µM. Also, the “self-cleavage kobs at 40 uM GlcN6P” value in the series with glucosamine-6-phosphate [6] is 0.00118 ± 2.4e-05 s⁻¹. For the same variant, in the series with glucosamine-6-phosphate [5], the “self-cleavage kobs at 160 uM GlcN6P” value was 0.00423 ± 0.00032 s⁻¹. Also, the “self-cleavage kobs at 640 uM GlcN6P” value in the series with glucosamine-6-phosphate [2] was 0.0144 ± 0.00063 s⁻¹. Moreover, in the series with glucosamine-6-phosphate [3], the “self-cleavage kobs at 2500 uM GlcN6P” value came out at 0.0326 ± 0.0018 s⁻¹. For the same variant, the “self-cleavage kobs at 10000 uM GlcN6P” value in the series with glucosamine-6-phosphate [4] was 0.0552 ± 0.0025 s⁻¹.
A15C: the catalytic constant (kcat) in the series with glucosamine-6-phosphate [1] came out at 0.011 ± 0.00069 s⁻¹. Besides, in the series with glucosamine-6-phosphate [7], the Michaelis-Menten constant (KM) amounted to 1940 ± 150 µM. For the same variant, in the series with glucosamine-6-phosphate [6], the “self-cleavage kobs at 40 uM GlcN6P” value was found to be 0.000227 ± 4.1e-06 s⁻¹. In the series with glucosamine-6-phosphate [5], the “self-cleavage kobs at 160 uM GlcN6P” value came out at 0.00074 ± 5.5e-05 s⁻¹. Further, in the series with glucosamine-6-phosphate [2], the “self-cleavage kobs at 640 uM GlcN6P” value is 0.00248 ± 0.0001 s⁻¹. The “self-cleavage kobs at 10000 uM GlcN6P” value in the series with glucosamine-6-phosphate [4] was determined as 0.00932 ± 0.00026 s⁻¹.
In the case of U31C C58G, the kcat in the series with glucosamine-6-phosphate [1] stood at 7.48e-05 ± 2.5e-05 s⁻¹. For the same variant, in the series with glucosamine-6-phosphate [6], the “self-cleavage kobs at 40 uM GlcN6P” value is less than 1e-05 s⁻¹. In addition, the “self-cleavage kobs at 640 uM GlcN6P” value with glucosamine-6-phosphate [2] was determined as 2.98e-05 ± 1.3e-05 s⁻¹. For the same variant, the “self-cleavage kobs at 2500 uM GlcN6P” value in the series with glucosamine-6-phosphate [3] turned out to be 2.91e-05 ± 1.1e-05 s⁻¹. Besides, the “self-cleavage kobs at 10000 uM GlcN6P” value in the series with glucosamine-6-phosphate [4] stood at 6.27e-05 ± 1.2e-05 s⁻¹.
A14C A53U: the kcat with glucosamine-6-phosphate [1] was 0.00451 ± 0.00085 s⁻¹. The KM in the series with glucosamine-6-phosphate [7] turned out to be 2930 ± 790 µM. In addition, in the series with glucosamine-6-phosphate [6], the “self-cleavage kobs at 40 uM GlcN6P” value amounted to 7.8e-05 ± 7.6e-06 s⁻¹. The “self-cleavage kobs at 160 uM GlcN6P” value in the series with glucosamine-6-phosphate [5] was 0.000184 ± 2.7e-05 s⁻¹. Besides, the “self-cleavage kobs at 640 uM GlcN6P” value with glucosamine-6-phosphate [2] turned out to be 0.000737 ± 0.00012 s⁻¹. Also, in the series with glucosamine-6-phosphate [3], the “self-cleavage kobs at 2500 uM GlcN6P” value worked out at 0.00214 ± 0.00026 s⁻¹. In addition, the “self-cleavage kobs at 10000 uM GlcN6P” value with glucosamine-6-phosphate [4] came out at 0.0035 ± 0.00029 s⁻¹.

The values are drawn from the supplement of paper PMC7125110.
